In patent publication US20130171170A1:

Molecular target: human CD22-beta-ECD-His tagged soluble antigen (human) (UniProt P20273)
Assay: SPR (BIACORE 3000), antibody coupled to the chip, soluble CD22-beta-ECD-His injected, 25 C

human CD22-beta-ECD-His tagged soluble antigen (human), sequence (P20273 other isoform, or with tags, fused parts or gaps): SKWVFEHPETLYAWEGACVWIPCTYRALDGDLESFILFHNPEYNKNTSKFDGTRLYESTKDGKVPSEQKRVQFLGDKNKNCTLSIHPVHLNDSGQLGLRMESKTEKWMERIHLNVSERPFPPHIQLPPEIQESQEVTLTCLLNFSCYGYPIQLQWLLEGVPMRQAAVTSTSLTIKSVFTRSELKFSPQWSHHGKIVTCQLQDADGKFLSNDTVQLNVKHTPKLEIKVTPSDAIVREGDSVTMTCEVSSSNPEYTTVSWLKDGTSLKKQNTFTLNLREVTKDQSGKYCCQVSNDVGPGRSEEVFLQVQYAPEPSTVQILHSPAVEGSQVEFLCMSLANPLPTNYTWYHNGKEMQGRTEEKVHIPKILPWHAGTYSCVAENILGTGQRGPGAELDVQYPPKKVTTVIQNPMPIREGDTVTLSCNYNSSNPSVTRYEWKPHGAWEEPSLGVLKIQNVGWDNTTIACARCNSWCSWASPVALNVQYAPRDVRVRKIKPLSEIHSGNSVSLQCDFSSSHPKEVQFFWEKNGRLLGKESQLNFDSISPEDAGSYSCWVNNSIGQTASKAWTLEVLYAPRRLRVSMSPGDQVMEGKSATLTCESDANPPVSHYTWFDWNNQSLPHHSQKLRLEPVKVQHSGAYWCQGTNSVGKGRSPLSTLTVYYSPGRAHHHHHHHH

B1: anti-CD22 antibody RFB4 (antibody, from another filing, V domains shown)
VH: EVQLVESGGGLVKPGGSLKLSCAASGFAFSIYDMSWVRQTPEKRLEWVAYISSGGGTTYYPDTVKGRFTISRDNAKNTLYLQMSSLKSEDTAMYYCARHSGYGSSYGVLFAYWGQGTLVTVSA
VL: DIQMTQTTSSLSASLGDRVTISCRASQDISNYLNWYQQKPDGTVKLLIYYTSILHSGVPSRFSGSGSGTDYSLTISNLEQEDFATYFCQQGNTLPWTFGGGTKLEIK
Kd: 4.2 nM | koff: 0.00014 s⁻¹ | kon: 33000 M⁻¹ s⁻¹
